Measurements as given in US20060234944A1, “Beta-secretase inhibitors and methods of use” (Oklahoma Medical Reseach Foundation, priority 2001, published 2006).
Where no end group is shown, it is not given here. [ ]: non-standard residue; d: D form. FAM = 5-(and 6-)carboxyfluorescein; Ahx = NCCCCCC(=O)O

Molecular target: memapsin 2 (spontaneously activated promemapsin 2-T1; amino acids 43-456 and 45-456 of SEQ ID NO: 8) (human) (UniProt P56817)
Experiment: kinetic inhibition experiment (procedure of Ermolieff et al.)

Sequence of memapsin 2 (spontaneously activated promemapsin 2-T1; amino acids 43-456 and 45-456 of SEQ ID NO: 8) (human) (P56817 41-454): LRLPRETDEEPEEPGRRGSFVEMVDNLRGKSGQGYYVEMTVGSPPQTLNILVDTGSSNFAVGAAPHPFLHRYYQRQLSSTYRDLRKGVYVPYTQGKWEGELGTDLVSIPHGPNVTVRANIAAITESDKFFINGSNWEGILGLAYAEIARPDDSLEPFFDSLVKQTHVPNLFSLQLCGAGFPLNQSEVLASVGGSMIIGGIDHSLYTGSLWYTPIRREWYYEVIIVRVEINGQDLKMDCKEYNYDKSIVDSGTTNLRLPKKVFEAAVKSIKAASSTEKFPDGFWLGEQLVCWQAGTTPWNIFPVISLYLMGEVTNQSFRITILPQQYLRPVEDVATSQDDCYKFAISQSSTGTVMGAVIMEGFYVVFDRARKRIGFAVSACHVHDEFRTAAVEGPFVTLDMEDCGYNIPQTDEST

Ki | Ki apparent | Binder
0.035 µM |  | ELDLAVEFGG[dR][dR][dR][dR][dR][dR][dR][dR][dR] (also: hydroxyethylene isostere between Leu4 and Ala5) [CPI-3: (ELDL*AVEF)-GG-(…)]
 | 0.058 µM | {FAM-Ahx}-ELDLAVEFGG[dR][dR][dR][dR][dR][dR][dR][dR][dR] (numbers in words are those of the source; also: hydroxyethylene isostere between Leu5 and Ala6) [CPI-2: FAM-Ahx-(ELDL*AVEF)-GG-(…)]
